In the supplement of paper PMC10065799, “High-throughput profiling of sequence recognition by tyrosine kinases and SH2 domains using bacterial peptide display” (eLife, 2023):

Columns and labels:
Hck = Hck (UniProt P08631); assay: phosphorylation enrichment, bacterial display (enrichment ratio); higher = better substrate or ligand; peptides without Tyr show the background
Fer (mouse) = assay: as above
AncSZ = assay: as above
c-Src = assay: as above
FGFR1 = FGFR1 (UniProt P11362); assay: as above
Fyn = Fyn (UniProt P06241); assay: as above
c-Abl (mouse) = assay: as above
EPHB1 = EPHB1 (UniProt P54762); assay: as above
FGFR3 = FGFR3 (UniProt P22607); assay: as above
MERTK = MERTK (UniProt Q12866); assay: as above
Fes = Fes (UniProt P07332); assay: as above
Jak2 = Jak2 (UniProt O60674); assay: as above
EPHB2 = EPHB2 (UniProt P29323); assay: as above
c-Src SH2 = assay: SH2 binding enrichment of the phosphorylated peptide, bacterial display (enrichment ratio); higher = better substrate or ligand; peptides without Tyr show the background
SHP2-C SH2 = assay: as above
Grb2 SH2 = Grb2 SH2 (UniProt P62993); assay: as above
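Throughout, for SH2 binding enrichment of the phosphorylated peptide, bacterial display: peptide library displayed on the E. coli surface as eCPX fusions, selected cells deep-sequenced, score is each peptide's frequency after selection divided by its frequency in the input.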
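Throughout, for phosphorylation enrichment, bacterial display: 11-residue human phosphosite peptides and single-mutation variants displayed on the E. coli surface, counted by deep sequencing, each peptide's frequency after selection divided by its frequency in the unselected input library; frequency after pTyr selection over input frequency; kinase dosed for 20-30% of maximal phosphorylation in three min.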

EPHB1, sequence (P54762 whole entry, looked up): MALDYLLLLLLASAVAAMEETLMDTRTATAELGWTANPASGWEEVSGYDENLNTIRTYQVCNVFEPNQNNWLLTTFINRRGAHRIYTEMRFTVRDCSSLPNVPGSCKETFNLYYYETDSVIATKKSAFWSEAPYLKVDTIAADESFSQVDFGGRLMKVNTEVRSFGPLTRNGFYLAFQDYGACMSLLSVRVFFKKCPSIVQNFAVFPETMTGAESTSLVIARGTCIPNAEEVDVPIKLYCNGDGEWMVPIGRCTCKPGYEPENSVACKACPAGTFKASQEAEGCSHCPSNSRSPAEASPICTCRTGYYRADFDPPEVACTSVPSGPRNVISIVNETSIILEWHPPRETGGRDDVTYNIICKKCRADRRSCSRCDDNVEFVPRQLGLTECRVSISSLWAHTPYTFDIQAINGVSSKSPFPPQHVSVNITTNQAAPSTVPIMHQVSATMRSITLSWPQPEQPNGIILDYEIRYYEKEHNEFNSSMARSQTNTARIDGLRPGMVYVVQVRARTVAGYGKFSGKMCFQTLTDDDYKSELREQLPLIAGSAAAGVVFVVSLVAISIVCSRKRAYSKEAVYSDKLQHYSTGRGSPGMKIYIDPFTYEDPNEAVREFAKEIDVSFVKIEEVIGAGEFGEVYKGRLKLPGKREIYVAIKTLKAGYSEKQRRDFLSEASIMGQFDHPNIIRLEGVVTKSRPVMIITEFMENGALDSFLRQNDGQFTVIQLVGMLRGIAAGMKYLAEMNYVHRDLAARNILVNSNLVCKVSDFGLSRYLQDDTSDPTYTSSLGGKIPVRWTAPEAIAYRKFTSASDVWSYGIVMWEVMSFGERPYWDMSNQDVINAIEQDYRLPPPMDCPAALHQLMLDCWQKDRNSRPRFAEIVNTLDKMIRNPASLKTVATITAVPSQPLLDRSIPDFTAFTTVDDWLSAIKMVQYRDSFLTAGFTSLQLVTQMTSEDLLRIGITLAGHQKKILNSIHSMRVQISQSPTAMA
FGFR3, sequence (P22607 whole entry, looked up): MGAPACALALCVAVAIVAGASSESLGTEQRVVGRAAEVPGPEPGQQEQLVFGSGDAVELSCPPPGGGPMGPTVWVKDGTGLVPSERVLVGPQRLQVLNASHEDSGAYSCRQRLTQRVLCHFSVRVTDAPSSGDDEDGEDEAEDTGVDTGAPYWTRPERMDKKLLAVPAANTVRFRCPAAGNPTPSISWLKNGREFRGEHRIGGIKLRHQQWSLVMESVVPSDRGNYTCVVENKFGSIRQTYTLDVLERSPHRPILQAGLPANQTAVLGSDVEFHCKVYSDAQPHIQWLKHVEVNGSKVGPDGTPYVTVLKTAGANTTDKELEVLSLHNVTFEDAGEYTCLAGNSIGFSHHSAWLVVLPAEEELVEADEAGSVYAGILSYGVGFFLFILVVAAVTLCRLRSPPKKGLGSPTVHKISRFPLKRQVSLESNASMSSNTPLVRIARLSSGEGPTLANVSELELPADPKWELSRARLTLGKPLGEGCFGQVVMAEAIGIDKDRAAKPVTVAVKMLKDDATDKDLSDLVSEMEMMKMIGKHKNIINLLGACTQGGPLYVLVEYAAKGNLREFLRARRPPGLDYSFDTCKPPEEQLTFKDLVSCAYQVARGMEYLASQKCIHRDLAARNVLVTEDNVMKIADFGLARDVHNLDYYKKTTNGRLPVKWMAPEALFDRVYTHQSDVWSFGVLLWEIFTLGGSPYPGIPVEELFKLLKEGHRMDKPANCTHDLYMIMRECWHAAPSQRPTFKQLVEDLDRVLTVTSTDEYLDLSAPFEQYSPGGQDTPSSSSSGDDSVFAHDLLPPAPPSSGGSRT
FGFR1, sequence (P11362 whole entry, looked up): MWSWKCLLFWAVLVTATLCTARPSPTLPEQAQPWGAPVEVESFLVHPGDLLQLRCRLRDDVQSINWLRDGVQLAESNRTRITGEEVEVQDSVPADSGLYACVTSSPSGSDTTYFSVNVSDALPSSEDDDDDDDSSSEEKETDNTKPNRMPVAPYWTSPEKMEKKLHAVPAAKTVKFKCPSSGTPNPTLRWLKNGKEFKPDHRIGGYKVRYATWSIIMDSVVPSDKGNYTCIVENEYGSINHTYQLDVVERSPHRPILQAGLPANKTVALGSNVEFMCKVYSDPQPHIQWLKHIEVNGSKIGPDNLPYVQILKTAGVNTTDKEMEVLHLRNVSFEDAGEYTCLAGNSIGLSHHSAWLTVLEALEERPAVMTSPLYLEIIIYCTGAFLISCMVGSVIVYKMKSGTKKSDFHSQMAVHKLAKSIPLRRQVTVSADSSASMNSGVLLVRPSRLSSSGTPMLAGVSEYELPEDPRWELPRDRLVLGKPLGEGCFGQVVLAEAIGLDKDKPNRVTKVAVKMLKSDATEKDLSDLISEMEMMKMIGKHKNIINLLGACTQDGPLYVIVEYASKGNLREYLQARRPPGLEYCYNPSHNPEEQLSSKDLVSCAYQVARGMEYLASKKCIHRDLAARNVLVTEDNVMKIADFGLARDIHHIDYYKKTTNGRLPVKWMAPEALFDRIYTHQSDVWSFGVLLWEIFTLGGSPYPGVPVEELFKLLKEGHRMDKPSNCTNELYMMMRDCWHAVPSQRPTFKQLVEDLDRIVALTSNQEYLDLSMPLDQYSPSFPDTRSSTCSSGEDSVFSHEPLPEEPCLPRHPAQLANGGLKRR
Jak2, sequence (O60674 whole entry, looked up): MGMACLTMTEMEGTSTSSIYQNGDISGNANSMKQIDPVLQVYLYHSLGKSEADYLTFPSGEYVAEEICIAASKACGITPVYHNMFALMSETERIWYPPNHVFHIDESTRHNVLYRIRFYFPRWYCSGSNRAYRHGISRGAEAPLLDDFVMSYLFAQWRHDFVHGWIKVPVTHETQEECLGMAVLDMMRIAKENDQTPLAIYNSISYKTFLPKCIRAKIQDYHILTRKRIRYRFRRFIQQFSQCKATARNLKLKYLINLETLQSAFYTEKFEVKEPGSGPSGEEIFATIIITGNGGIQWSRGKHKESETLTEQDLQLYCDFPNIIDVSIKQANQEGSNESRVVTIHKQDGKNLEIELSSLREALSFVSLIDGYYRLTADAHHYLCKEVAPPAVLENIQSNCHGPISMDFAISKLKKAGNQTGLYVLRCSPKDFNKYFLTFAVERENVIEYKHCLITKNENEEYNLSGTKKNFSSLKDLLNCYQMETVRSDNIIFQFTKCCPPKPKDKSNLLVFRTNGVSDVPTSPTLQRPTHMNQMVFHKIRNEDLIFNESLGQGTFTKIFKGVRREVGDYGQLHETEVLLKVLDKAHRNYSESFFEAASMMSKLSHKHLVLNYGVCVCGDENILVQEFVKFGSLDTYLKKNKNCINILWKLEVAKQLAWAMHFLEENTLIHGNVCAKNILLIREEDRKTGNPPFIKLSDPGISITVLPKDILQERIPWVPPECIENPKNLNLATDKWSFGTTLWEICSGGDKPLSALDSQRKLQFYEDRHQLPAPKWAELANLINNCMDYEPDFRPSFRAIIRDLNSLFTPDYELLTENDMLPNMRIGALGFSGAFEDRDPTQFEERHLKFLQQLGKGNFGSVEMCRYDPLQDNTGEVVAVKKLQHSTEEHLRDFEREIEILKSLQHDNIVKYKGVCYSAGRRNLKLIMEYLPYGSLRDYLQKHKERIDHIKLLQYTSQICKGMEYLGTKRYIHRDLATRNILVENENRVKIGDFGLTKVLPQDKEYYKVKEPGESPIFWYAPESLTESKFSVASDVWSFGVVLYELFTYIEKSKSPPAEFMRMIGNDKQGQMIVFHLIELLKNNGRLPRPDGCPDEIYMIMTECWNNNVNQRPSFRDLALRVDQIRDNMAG
EPHB2, sequence (P29323 whole entry, looked up): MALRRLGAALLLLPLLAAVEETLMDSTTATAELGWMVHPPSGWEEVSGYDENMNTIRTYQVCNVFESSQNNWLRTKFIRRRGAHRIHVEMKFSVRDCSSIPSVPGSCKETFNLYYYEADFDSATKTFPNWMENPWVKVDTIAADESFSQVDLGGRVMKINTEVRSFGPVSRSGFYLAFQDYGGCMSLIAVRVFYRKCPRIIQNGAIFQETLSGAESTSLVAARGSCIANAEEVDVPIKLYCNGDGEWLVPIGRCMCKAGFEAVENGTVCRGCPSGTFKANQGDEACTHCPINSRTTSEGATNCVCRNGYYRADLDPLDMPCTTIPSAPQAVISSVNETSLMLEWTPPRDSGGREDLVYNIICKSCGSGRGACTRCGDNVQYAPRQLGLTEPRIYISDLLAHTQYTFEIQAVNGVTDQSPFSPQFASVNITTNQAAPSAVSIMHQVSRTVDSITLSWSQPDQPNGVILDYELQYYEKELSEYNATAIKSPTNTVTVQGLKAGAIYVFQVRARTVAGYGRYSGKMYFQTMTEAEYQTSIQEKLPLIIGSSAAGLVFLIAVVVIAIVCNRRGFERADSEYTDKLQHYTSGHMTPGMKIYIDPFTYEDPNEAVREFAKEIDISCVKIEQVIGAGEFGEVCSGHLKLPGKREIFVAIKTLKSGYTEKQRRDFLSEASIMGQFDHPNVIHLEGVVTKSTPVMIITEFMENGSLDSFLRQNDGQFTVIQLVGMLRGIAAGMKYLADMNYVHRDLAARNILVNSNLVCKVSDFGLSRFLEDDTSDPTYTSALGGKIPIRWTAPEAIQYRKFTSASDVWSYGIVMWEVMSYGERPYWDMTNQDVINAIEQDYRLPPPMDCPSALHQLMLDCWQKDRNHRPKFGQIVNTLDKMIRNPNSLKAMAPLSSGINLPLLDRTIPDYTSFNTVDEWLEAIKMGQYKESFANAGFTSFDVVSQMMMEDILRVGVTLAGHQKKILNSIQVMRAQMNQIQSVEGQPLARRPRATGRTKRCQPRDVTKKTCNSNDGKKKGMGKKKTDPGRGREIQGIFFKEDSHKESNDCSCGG

Sequence | SH2 binding enrichment (c-Src SH2) | SH2 binding enrichment (SHP2-C SH2) | SH2 binding enrichment (Grb2 SH2) | phosphorylation enrichment (Hck) | phosphorylation enrichment (Fer (mouse)) | phosphorylation enrichment (AncSZ) | phosphorylation enrichment (c-Src) | phosphorylation enrichment (FGFR1) | phosphorylation enrichment (Fyn) | phosphorylation enrichment (c-Abl (mouse)) | phosphorylation enrichment (EPHB1) | phosphorylation enrichment (FGFR3) | phosphorylation enrichment (MERTK) | phosphorylation enrichment (Fes) | phosphorylation enrichment (Jak2) | phosphorylation enrichment (EPHB2)
ARGMEYLASQK [FGFR2_Y616] | 0.369 | 0.755 | 0.763 | 0.385 | 0.37 | 0.576 | 0.398 | 0.443 | 0.534 | 0.669 | 0.376 | 0.433 | 0.394 | 0.657 | 0.563 | 0.461
ARVDTYCRHNF [HLA-DRB1_Y107_A103R_YF] | 0.757 | 0.743 | 1.01 | 0.45 | 0.433 | 0.7 | 0.496 | 0.443 | 0.439 | 0.677 | 0.41 | 0.53 | 0.486 | 0.992 | 0.731 | 0.494
ASTHVYQIMNH [ITK_Y588] | 14.3 | 0.833 | 0.73 | 2 | 1.34 | 0.703 | 2.58 | 0.508 | 1.39 | 0.623 | 0.991 | 0.423 | 1.61 | 0.722 | 0.55 | 0.487
AVRYIYTIDGS [DCX_Y105_G100A] | 0.76 | 20.1 | 0.979 | 1.41 | 0.439 | 0.948 | 3.18 | 0.579 | 3.86 | 0.727 | 0.65 | 0.709 | 0.629 | 1.2 | 0.972 | 0.552
CDTKLYTSVPN [DNTTIP2_Y427_A430V] | 1.22 | 0.48 | 0.728 | 1.01 | 1.27 | 0.96 | 0.849 | 0.62 | 0.655 | 0.755 | 1.11 | 0.797 | 1.5 | 1.12 | 0.842 | 0.77
CEAMEYLESKQ [BTK_Y511] | 0.402 | 0.553 | 0.676 | 0.751 | 0.788 | 1.94 | 0.839 | 0.655 | 0.557 | 1.36 | 0.882 | 1.01 | 0.688 | 1.95 | 1.89 | 0.811
CEDMEYLESKQ [BTK_Y511_A508D] | 0.454 | 0.622 | 0.805 | 0.643 | 0.652 | 1.3 | 0.53 | 0.476 | 0.494 | 0.828 | 0.652 | 0.734 | 0.497 | 1.35 | 1.22 | 0.783
CKQGKYLNWDA [ATM_Y54_S49C] | 0.735 | 1.24 | 5.58 | 0.423 | 0.397 | 0.921 | 0.366 | 0.447 | 0.418 | 0.605 | 0.552 | 0.632 | 0.39 | 0.839 | 0.782 | 0.494
CPASVYTKRCS [CPT2_Y508_R503C] | 0.584 | 0.765 | 0.982 | 0.392 | 0.354 | 0.598 | 0.431 | 0.447 | 0.434 | 0.442 | 0.349 | 0.441 | 0.447 | 0.549 | 0.518 | 0.403
CPSLPYSPVSS [CAMKK2_Y128] | 0.712 | 0.855 | 0.978 | 0.497 | 3.14 | 0.813 | 0.787 | 0.588 | 0.545 | 0.654 | 0.491 | 0.7 | 0.527 | 0.847 | 0.905 | 0.607
CRERPYGGGGG [FUS_Y526_R521C] | 0.651 | 0.593 | 0.87 | 0.481 | 0.647 | 0.631 | 0.377 | 0.556 | 0.389 | 0.459 | 0.552 | 0.468 | 0.438 | 1.13 | 0.587 | 0.406
CRPPYYHRNCM [HGD_Y334_F329C] | 1.65 | 1.25 | 1.78 | 0.761 | 0.458 | 0.837 | 0.452 | 0.617 | 0.565 | 0.743 | 0.436 | 0.628 | 0.515 | 0.856 | 0.992 | 0.556
CSHKFYGKQCC [ADAMTS16_Y1211] | 0.765 | 1.01 | 1.04 | 0.415 | 0.448 | 0.607 | 0.268 | 0.391 | 0.346 | 0.505 | 0.498 | 0.499 | 0.396 | 0.673 | 0.513 | 0.477
CSRCFYQLTKL [AR_Y858_R856C] | 1.18 | 1.52 | 1.24 | 0.362 | 1.85 | 0.864 | 1.14 | 0.601 | 0.429 | 0.564 | 0.45 | 0.587 | 0.55 | 0.904 | 0.728 | 0.459
CTHDLYMIMRE [FGFR3_Y724] | 0.573 | 0.708 | 0.811 | 0.971 | 0.667 | 1.31 | 2.22 | 0.634 | 0.564 | 0.848 | 2.05 | 0.837 | 1.18 | 1.46 | 1.44 | 1.03

The next lines start with results.

SH2 binding enrichment (c-Src SH2) | SH2 binding enrichment (SHP2-C SH2) | SH2 binding enrichment (Grb2 SH2) | Sequence | phosphorylation enrichment (Hck) | phosphorylation enrichment (Fer (mouse)) | phosphorylation enrichment (AncSZ) | phosphorylation enrichment (c-Src) | phosphorylation enrichment (FGFR1) | phosphorylation enrichment (Fyn) | phosphorylation enrichment (c-Abl (mouse)) | phosphorylation enrichment (EPHB1) | phosphorylation enrichment (FGFR3) | phosphorylation enrichment (MERTK) | phosphorylation enrichment (Fes) | phosphorylation enrichment (Jak2) | phosphorylation enrichment (EPHB2)
0.609 | 0.682 | 0.84 | AQQPIYVRVEG [NLRP7_Y318] | 1.74 | 0.707 | 0.967 | 3.6 | 1.12 | 2.18 | 1.54 | 5.88 | 0.787 | 2.46 | 0.963 | 0.965 | 4.96
0.845 | 1 | 1.25 | ARMTNCGLPRY [TSPAN12_Y138_Y138C] | 0.453 | 0.335 | 0.588 | 0.456 | 0.446 | 0.394 | 0.575 | 0.487 | 0.487 | 0.354 | 0.602 | 0.519 | 0.365
0.5 | 0.761 | 1 | ARMTNYGLPRY [TSPAN12_Y138] | 0.554 | 0.576 | 0.576 | 0.534 | 0.495 | 0.619 | 0.66 | 0.463 | 0.441 | 0.497 | 0.739 | 0.606 | 0.588
0.613 | 0.793 | 1 | ASFSLYEPAKM [MKI67_Y340_P338S] | 3.48 | 9.33 | 1.27 | 1.25 | 0.518 | 1.27 | 0.825 | 6.24 | 0.563 | 0.769 | 1.28 | 0.954 | 5.28
0.697 | 1.02 | 0.695 | ASNFNYFYHRE [KCNA1_Y413_V408A] | 0.428 | 0.455 | 0.95 | 0.497 | 1.1 | 0.504 | 0.476 | 0.582 | 0.956 | 0.398 | 0.964 | 0.732 | 0.65
0.482 | 0.657 | 0.765 | ATVRPYRPYII [LRP5_Y1528_A1525V] | 0.43 | 0.462 | 0.777 | 0.586 | 0.53 | 0.518 | 0.677 | 0.499 | 0.591 | 0.484 | 0.715 | 0.564 | 0.552
0.542 | 0.686 | 1.01 | CCKNRYDKDKP [THAP1_Y14_G9C] | 0.384 | 0.345 | 0.455 | 0.345 | 0.465 | 0.33 | 0.381 | 0.29 | 0.419 | 0.486 | 0.5 | 0.429 | 0.28
0.578 | 0.793 | 0.866 | CDIARYIVSQL [MAST2_Y461_P459A] | 0.559 | 0.505 | 0.919 | 0.478 | 0.553 | 0.447 | 0.667 | 0.594 | 0.733 | 0.43 | 1.12 | 0.827 | 0.542
0.883 | 1.14 | 1.47 | CEHRGFLYLAI [TEK_Y897_Y897F] | 0.453 | 0.545 | 0.971 | 0.564 | 0.419 | 0.372 | 0.947 | 0.464 | 0.698 | 0.442 | 1.16 | 0.801 | 0.466
1.49 | 1.74 | 2.18 | CIILLYIFLKN [STXBP1_Y411_R406C] | 0.465 | 0.406 | 0.676 | 0.37 | 0.392 | 0.378 | 0.492 | 0.441 | 0.531 | 0.363 | 0.693 | 0.553 | 0.275
0.799 | 1.35 | 1.04 | CLMILHRLKER [PTPRR_Y249_Y249H] | 0.426 | 0.516 | 1.05 | 0.395 | 0.436 | 0.464 | 0.548 | 0.496 | 0.575 | 0.437 | 1.19 | 1.03 | 0.569
0.901 | 1.22 | 1.25 | CLMILYRLKER [PTPRR_Y249] | 0.494 | 0.501 | 1.26 | 0.388 | 0.509 | 0.5 | 0.576 | 0.444 | 0.809 | 0.364 | 1.23 | 0.997 | 0.603
1.24 | 0.984 | 1.28 | CNNFIYGGCRG [SPINT2_Y163] | 3.35 | 0.371 | 0.543 | 5.21 | 0.455 | 3.89 | 0.442 | 0.361 | 0.382 | 0.391 | 0.699 | 0.591 | 0.404
0.467 | 0.553 | 0.643 | CSEETYRLMLQ [RET_Y981_M980T] | 0.576 | 0.703 | 1.28 | 0.627 | 0.741 | 0.586 | 0.81 | 0.65 | 1.06 | 0.451 | 1.29 | 1.03 | 0.611
2.11 | 1.76 | 1.76 | CTIIHYNYMCN [TP53_Y234_T231I] | 0.521 | 0.633 | 0.963 | 0.452 | 0.583 | 0.588 | 0.534 | 0.723 | 0.798 | 0.419 | 1 | 0.829 | 0.694
0.382 | 0.708 | 0.796 | CTLNVYRQLHN [LUZP1_Y1036_S1034N] | 0.551 | 0.516 | 1.05 | 0.473 | 0.558 | 0.459 | 0.739 | 0.753 | 0.749 | 0.475 | 1.28 | 1 | 0.585
0.914 | 1.27 | 0.987 | CTTIHNNYMCN [TP53_Y234_Y234N] | 0.423 | 0.383 | 0.712 | 0.385 | 0.423 | 0.432 | 0.63 | 0.44 | 0.452 | 0.379 | 0.725 | 0.61 | 0.456
0.508 | 0.823 | 0.775 | CTTIHYNCMCN [TP53_Y234_Y236C] | 0.475 | 0.541 | 1.06 | 0.468 | 0.417 | 0.45 | 0.689 | 0.591 | 0.715 | 0.426 | 1.08 | 0.885 | 0.712
